We go through two molecules from patent US20260232732A1 (FUNDACI INSTITUT DE RECERCA CONTRA LA LEUC MIA JOSEP …, published 2026).

Experiment [1] deals with T1, Peptide 3-BSA (SSMEDYVNFN-C conjugated to BSA) (human).
T1 peptide: SSMEDYVNFNC(BSA)
As to the kind of experiment: ELISA; Ab 0.03125 ug/mL; repI. The method, then:
(§1) In brief, plates with each non-conjugated peptide (50 μg/mL) or BSA-conjugated peptide (5 μg/mL) were coated in 0.58M carbonate-bicarbonate buffer pH9.5, 100 μL/well, at 4° C. […] After washing, wells were incubated with the 3, 3′,5,5′-Tetramethylbenzidine (TMB) HRP substrate and reactions were stopped with 2M HCl and OD450 was recorded.
Background: In an ELISA, binding on a coated surface is turned into a signal by an enzyme label.

The target of experiment [2] is T2, Peptide 1-BSA (MADDYGSEST-C conjugated to BSA) (human).
T2 peptide: MADDYGSESTC(BSA)
As to the kind of experiment: ELISA; Ab 0.03125 ug/mL; repI. How it is done:
as §1

The target of experiment [3] is T3, Peptide 4, non-conjugated (SMEDYVNFNF-C) (human).
T3 construct: With the extra C-terminal Cys
T3 peptide: SMEDYVNFNFC
The experiment can be described thus: ELISA; Ab 0.03125 ug/mL; repI. The method, then:
as §1

Experiment [4] deals with T4, Peptide 1, non-conjugated (MADDYGSEST-C) (human).
T4 construct: With the extra C-terminal Cys
T4 peptide: MADDYGSESTC
The experiment can be described thus: ELISA; Ab 0.03125 ug/mL; repI. How it is done: as §1

For experiment [5], the target named is T5, Peptide 2-BSA (GSESTSSMED-C conjugated to BSA) (human).
T5 peptide: GSESTSSMEDC(BSA)
As to the kind of experiment: ELISA; Ab 0.03125 ug/mL; repI. How it is done: as §1

In experiment [6] the target is T6, Peptide 3, non-conjugated (SSMEDYVNFN-C) (human).
T6 construct: With the extra C-terminal Cys
T6 peptide: SSMEDYVNFNC
As to the kind of experiment: ELISA; Ab 0.03125 ug/mL; repI. The method, then:
as §1

Experiment [7] addresses T7, Peptide 4-BSA (SMEDYVNFNF-C conjugated to BSA) (human).
T7 peptide: SMEDYVNFNFC(BSA)
As to the kind of experiment: ELISA; Ab 0.03125 ug/mL; repI. The method, then: as §1

Experiment [8] addresses T8, antigen peptide-BSA (immunisation peptide #1 MADDYGSESTSSMEDYVNFNF-C conjugated to BSA) (human, extra C-terminal Cys conjugated to BSA).
T8 construct: also called Positive control antigen peptide-BSA; MADDY peptide
T8 peptide: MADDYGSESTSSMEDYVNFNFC
As to the kind of experiment: ELISA; Ab 0.03125 ug/mL; repI. How it is done: as §1

Experiment [9] has as its target T9, Peptide 2, non-conjugated (GSESTSSMED-C) (human).
T9 construct: With the extra C-terminal Cys
T9 peptide: GSESTSSMEDC
The experiment can be described thus: ELISA; Ab 0.03125 ug/mL; repI. How it is done: as §1

Experiment [10] concerns the target T10, BSA (negative control coating) (bovine, UniProt P02769 25-607).
T10 construct: also called Negative control BSA
The experiment can be described thus: ELISA; Ab 0.03125 ug/mL; repI. The method, then: as §1

The target in experiment [11] is T1, Peptide 3-BSA (SSMEDYVNFN-C conjugated …). As to the kind of experiment: ELISA; Ab 0.25 ug/mL; repI. How it is done:
as §1

In experiment [12] the target is T2, Peptide 1-BSA (MADDYGSEST-C conjugated …). As to the kind of experiment: ELISA; Ab 0.25 ug/mL; repI. How it is done: as §1
In experiment [13] the target is T3, Peptide 4, non-conjugated (SMEDYVNFNF-C). As to the kind of experiment: ELISA; Ab 0.25 ug/mL; repI. How it is done: as §1
The target in experiment [14] is T4, Peptide 1, non-conjugated (MADDYGSEST-C). The experiment can be described thus: ELISA; Ab 0.25 ug/mL; repI. How it is done: as §1
The target in experiment [15] is T5, Peptide 2-BSA (GSESTSSMED-C conjugated …). As to the kind of experiment: ELISA; Ab 0.25 ug/mL; repI. The method, then:
as §1

Experiment [16] deals with T6, Peptide 3, non-conjugated (SSMEDYVNFN-C). As to the kind of experiment: ELISA; Ab 0.25 ug/mL; repI. The method, then:
as §1

The target in experiment [17] is T7, Peptide 4-BSA (SMEDYVNFNF-C conjugated …). As to the kind of experiment: ELISA; Ab 0.25 ug/mL; repI. How it is done: as §1
The target of experiment [18] is T8, antigen peptide-BSA (immunisation …). The experiment can be described thus: ELISA; Ab 0.25 ug/mL; repI. How it is done:
as §1

The target in experiment [19] is T9, Peptide 2, non-conjugated (GSESTSSMED-C). The experiment can be described thus: ELISA; Ab 0.25 ug/mL; repI. The method, then: as §1
Experiment [20] addresses T10, BSA (negative control coating). The experiment can be described thus: ELISA; Ab 0.25 ug/mL; repI. How it is done:
as §1

For experiment [21], the target named is T11, naked peptide MADDYGSEST (human).
T11 peptide: MADDYGSEST
As to the kind of experiment: ELISA, naked peptide.

The target of experiment [22] is T12, naked peptide IPNMADDYGS (human).
T12 peptide: IPNMADDYGS
The experiment can be described thus: ELISA, naked peptide.

The target of experiment [23] is T13, naked peptide SMEDYVNFNF (human).
T13 peptide: SMEDYVNFNF
The experiment can be described thus: ELISA, naked peptide.

The target in experiment [24] is T14, naked peptide DYGSESTSSM (human).
T14 peptide: DYGSESTSSM
As to the kind of experiment: ELISA, naked peptide.

Experiment [25] has as its target T15, naked peptide TSPIPNMADD (human).
T15 peptide: TSPIPNMADD
As to the kind of experiment: ELISA, naked peptide.

Experiment [26] concerns the target T16, naked peptide MEDYVNFNFT (human).
T16 peptide: MEDYVNFNFT
The experiment can be described thus: ELISA, naked peptide.

In experiment [27] the target is T17, biotin-peptide MTPTDFTSPI (human, also: prints MTPTDFTSP, without I10).
T17 peptide: Biotin-MTPTDFTSPI
The experiment can be described thus: ELISA, biotin-peptide.

Experiment [28] deals with T18, biotin-peptide IPNMADDYGS (human).
T18 peptide: Biotin-IPNMADDYGS
The experiment can be described thus: ELISA, biotin-peptide.

Experiment [29] addresses T19, biotin-peptide MEDYVNFNFT (human).
T19 peptide: Biotin-MEDYVNFNFT
As to the kind of experiment: ELISA, biotin-peptide.

The target in experiment [30] is T20, biotin-peptide DYGSESTSSM (human).
T20 peptide: Biotin-DYGSESTSSM
As to the kind of experiment: ELISA, biotin-peptide.

Experiment [31] concerns the target T21, biotin-peptide TDFTSPIPNM (human).
T21 peptide: Biotin-TDFTSPIPNM
The experiment can be described thus: ELISA, biotin-peptide.

In experiment [32] the target is T22, biotin-peptide SESTSSMEDY (human).
T22 peptide: Biotin-SESTSSMEDY
As to the kind of experiment: ELISA, biotin-peptide.

Experiment [33] has as its target T23, biotin-peptide SSMEDYVNFN (human).
T23 peptide: Biotin-SSMEDYVNFN
As to the kind of experiment: ELISA, biotin-peptide.

The target in experiment [34] is T24, biotin-peptide SMEDYVNFNF (human).
T24 peptide: Biotin-SMEDYVNFNF
The experiment can be described thus: ELISA, biotin-peptide.

For experiment [35], the target named is T25, biotin-peptide YCEKNNVRQF (human).
T25 peptide: Biotin-YCEKNNVRQF
As to the kind of experiment: ELISA, biotin-peptide.

Where no end group is shown, it is not given here. The star is where a group is joined. Biotin = O=C1N[C@H]2[C@H](CS[C@H]2CCCCC(=O)*)N1

T10 sequence (P02769 25-607 limits assumed): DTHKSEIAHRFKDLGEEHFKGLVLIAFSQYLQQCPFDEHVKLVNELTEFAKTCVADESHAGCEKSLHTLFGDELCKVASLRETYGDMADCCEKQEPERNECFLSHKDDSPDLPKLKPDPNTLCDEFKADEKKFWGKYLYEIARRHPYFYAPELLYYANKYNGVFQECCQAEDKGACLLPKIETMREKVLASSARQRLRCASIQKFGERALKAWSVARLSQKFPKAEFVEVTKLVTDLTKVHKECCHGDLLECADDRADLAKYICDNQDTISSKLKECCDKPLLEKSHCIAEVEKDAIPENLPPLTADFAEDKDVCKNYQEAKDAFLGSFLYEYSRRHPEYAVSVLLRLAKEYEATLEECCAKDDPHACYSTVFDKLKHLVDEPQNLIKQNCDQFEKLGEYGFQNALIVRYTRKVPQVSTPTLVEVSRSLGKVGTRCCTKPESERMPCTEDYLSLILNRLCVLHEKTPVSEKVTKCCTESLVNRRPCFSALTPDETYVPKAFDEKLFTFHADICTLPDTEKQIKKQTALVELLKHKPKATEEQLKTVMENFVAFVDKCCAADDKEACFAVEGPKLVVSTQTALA

B1: anti-CCR9 antibody clone 115 (murine, from hybridoma #115) (antibody, V domains shown)
VH: QVQLKQSGPELVKPGTSVRVSCTASGYSFTDYIIYWVKQSHGRSLEWIGYIDPNNYNTRYSQKFKGKATLTVDKSSTSAFMHLNSLTSDDSAVYYCARDVYWGQGTTLTVSS
VL: DVVMTQTPLSLTVSLGDQASISCRSSQSLVHSNGKTYLQWYLQKPGQSPKLLIYKVSNRFSGVPDRFSGSGSGTDFTLKISRVEAEDLGVYFCAQSTHVWTFGGGTKLEIKR
notes: Mouse IgG1
For the molecule B1, the OD450 in [1] worked out at 1.66 OD; in experiment [2], 0.01 OD; in [3], 0.67 OD; in [4], 0.01 OD; in experiment [5], 0.01 OD; in experiment [6], 1.65 OD. Further, the OD450 was 1.44 OD in experiment [7]; 1.28 OD in experiment [8]; 0.01 OD in experiment [9]; 0.01 OD in [10]; 1.95 OD in experiment [11]; 0.02 OD in experiment [12]. Also, the OD450 came to 2.09 OD in experiment [13]; 0.02 OD in experiment [14]; 0.02 OD in experiment [15]; 1.89 OD in experiment [16]; 2.46 OD in experiment [17]; 2.29 OD in [18]. Also, the figures for the OD450 in experiment [19] and in experiment [20] were 0.02 OD and 0.01 OD, respectively.

B2: Comparative antibody 1 (Comp-1) scFv, SEQ ID NO: 10 from WO2023/037125 A1, His-tagged (scFv)
scFv: QVQLKESGPGLVQPSQTLSLTCTVSGFSVASYDMHWVRLPPGKGLEWMGIIWANGNTHYNSGLKSRLSISRDTSKSQVFLKMNSLQTEDTAIYFCTRGGFAYWGQGTLVTVSSGGGGSGGGGSGGGGSGGGGSDVVMTQTPVSLSVSLGGQVSISCRSSQSLVHNNGNTYLSWYLQKPGQSPQLLIYKVSNRFSGVSDRFSGSGSGTDFTLKISRVEPDDLGVYYCGQGTQYPTFGGGTKLELKHHHHHH
As for B2, the binding result in experiment [21], in experiment [22], in experiment [23], in [24], in experiment [25] and in experiment [26] was “no binding (tested: 1 ug/mL)” in each case. In addition, the binding result in experiment [27], in experiment [28], in experiment [29], in experiment [30], in experiment [31] and in [32] was “no binding (tested: 10 ug/mL)” each time. The binding result in experiment [33], in experiment [34] and in experiment [35] was “no binding (tested: 10 ug/mL)” throughout.
